The numbers were not newly measured in article PMC5466068, which cites them from elsewhere.

The data set addresses Cys32 (UniProt position 32, FSATWCGPCKM). Description: NMR. The conditions noted are these: not stated (a free thiol at the catalytic Cys implies the reduced form).

Regarding Thioredoxin-1 (Thrx-1) (Homo sapiens), the pKa is listed as ~6.3.
